Literature values as cited in patent US20210137911A1, “NOVEL CHRONOTHERAPY BASED ON CIRCADIAN RHYTHMS” (THE TRUSTEES OF THE UNIVERSITY OF PENNSYLVANIA, priority 2014, published 2021).

B1: Filgrastim (protein, chains of the INN, looked up)
chain: MTPLGPASSLPQSFLLKCLEQVRKIQGDGAALQEKLCATYKLCHPEELVLLGHSLGIPWAPLSSCPSQALQLAGCLSQLHSGLFLYQGLLQALEGISPELGPTLDTLQLDVADFATTIWQQMEELGMAPALQPTQGAMPAFASAFQRRAGGVLVASHLQSFLEVSYRVLRHLAQP
modifications: N-terminal methionine
B2: Idursulfase (protein, UniProt P22304 34-455; P22304 456-550, looked up)
Iduronate 2-sulfatase 42 kDa …: TDALNVLLIIVDDLRPSLGCYGDKLVRSPNIDQLASHSLLFQNAFAQQAVCAPSRVSFLTGRRPDTTRLYDFNSYWRVHAGNFSTIPQYFKENGYVTMSVGKVFHPGISSNHTDDSPYSWSFPPYHPSSEKYENTKTCRGPDGELHANLLCPVDVLDVPEGTLPDKQSTEQAIQLLEKMKTSASPFFLAVGYHKPHIPFRYPKEFQKLYPLENITLAPDPEVPDGLPPVAYNPWMDIRQREDVQALNISVPYGPIPVDFQRKIRQSYFASVSYLDTQVGRLLSALDDLQLANSTIIAFTSDHGWALGEHGEWAKYSNFDVATHVPLIFYVPGRTASLPEAGEKLFPYLDPFDSASQLMEPGRQSMDLVELVSLFPTLAGLAGLQVPPRCPVPSFHVELCREGKNLLKHFRFRDLEEDPYLPG
Iduronate 2-sulfatase 14 kDa …: NPRELIAYSQYPRPSDIPQWNSDKPSLKDIKIMGYSIRTIDYRYTVWVGFNPDEFLANFSDIHAGELYFVDSDPLQDHNMYNDSQGGDLFQLLMP
B3: Tenecteplase (protein, UniProt P00750 36-562, looked up, variant T103N N117Q K296A H297A R298A R299A)
Tissue-type plasminogen …: SYQVICRDEKTQMIYQQHQSWLRPVLRSNRVEYCWCNSGRAQCHSVPVKSCSEPRCFNGGTCQQALYFSDFVCQCPEGFAGKCCEIDTRATCYEDQGISYRGNWSTAESGAECTNWQSSALAQKPYSGRRPDAIRLGLGNHNYCRNPDRDSKPWCYVFKAGKYSSEFCSTPACSEGNSDCYFGNGSAYRGTHSLTESGASCLPWNSMILIGKVYTAQNPSAQALGLGKHNYCRNPDGDAKPWCHVLKNRRLTWEYCDVPSCSTCGLRQYSQPQFRIKGGLFADIASHPWQAAIFAAAAASPGERFLCGGILISSCWILSAAHCFQERFPPHHLTVILGRTYRVVPGEEEQKFEVEKYIVHKEFDDDTYDNDIALLQLKSDSSRCAQESSVVRTVCLPPADLQLPDWTECELSGYGKHEALSPFYSERLKEAHVRLYPSSRCTSQHLLNRTVTDNMLCAGDTRSGGPQANLHDACQGDSGGPLVCLNDGRMTLVGIISWGLGCGQKDVPGVYTKVTNYLDWIRDNMRP

Conditions: in vivo

In order of rising “½ Life” value:
1. B2  0.733 h
2. B3  1.9 h
3. B1  3.5 h
